Assay: label from the status in PepcDB records
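Also: failed if final PepcDB status was selected cloned or expressed and not failed if soluble or beyond.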

Sequence | protein production
MNKMLYGWLLAACCGLPPAFAGDSVDVLAQPALHGPQALRAVLQDVARADARLVAVGERGVVLLSDDNGATWRQATAVPVGVSLTAVQFIDARNGWAVGHAGVVLHSQDGGEHWSVQLDGKRAAALEVQAAEAAADERRLAAAQRLLADGADKPLLALNFTDARNGLVVGAYGVAMRTDDGGRSWQSEIGRLPNGRGLHLYALARQGNQVYIAGEQGLLLRSRDGGEHYEALHGPYDGSYFAATVLPDGRLLLGGLRGSLFASDDGGDSFQALANPTPASINGLRVAGGQLLLANQAGMLLRSGLGAFAAQPVAVSDGLPLTAATTAADGSIVAVGMAGARRLEPSSLEHHHHHH | failed
MNKMNNNILKKNDLSSQEESTHEIQDVLDQLDFYTYKIALFLDIDGTLADFKIDPLACFISKKILKSIQDIQSKGCLVSVITGRDYNSAQKLLADVSLPIAALHGLDIHINEKTQLNAINQNNQIFIQNFLCRLKEEIKYQPDLSIENKHHSIALHYRKNPDLYDIAKHIMNTVKKDNDEFKVIEGKYVFELIPKNSNKGSAIKTLLSYFDAEHYLSIFIGDDITDEDGFNMVNQLEGISIKVGSGKTVARFRLKNIEHVEEFLNLLSHHFPDSSTQITKKYGEQHV | failed
MNKNLNTFTSMRNDRQLHLYLAWGCPFCHRILASLAITKLDDNISITWMENIKGEAGWKMYFIEDPLFNSDSLKAVYQQLEPTVEHRYSVPLLVDKKNNLLLSTSSPEIVRYVAKGFDDAFSVAYDLIPNKLIKDIDEMNQWLHDKINRAVYLVGFATQQSDYEYKLYELFKALDELEERLKKQLFLFGNQLTESDLYLLATLERFDNIYFCLFKCSLKRIADYPALFRYHNQLRGMESLASTYQPVLTKEHYFMSTMHVLGEARELNPSKIIPIDYYP | failed
MNKQNKQNKFSPEVRERSVRLVQEHRGEYPSLWAAVESIAPKIGCVPSTLLEWVKRSEINNGAREGLTSSERDRLKALERENRELRRANEILKTASAFFAQAELDRVLKKLEHHHHHH | not failed
MNKRAREWVSVGITWVQDVIYVALGILLTLACAVLLLHGGVNLVGALGRDLDLQVIVQLLDRILLAMMIVELLYTVKVSFRDHLLVPEPFLLVALIAAIRRILVITAEFGAQAPSGDEQFRHVMSELGLLTVLILVLVGSVVILRRRDSAEAPR | failed
MNKRRNHKTNKAKDSLSDEETKHDVLAQEVEGGDSSSDEDDVNIVLEPSSTYYGGDTSTGDSKGLFVGGTTTRHWQRPGYSSTAEGGIVGSGVSAYSRGGVDLSLVPKPPTDFPGAHVDYSVFENEIDSLEEKPWREKGAELSDYFNYGFTEDTWREYCRRQQMMRLYSQSLMPIRTLDSGGPLHNIDSPNEPSRKVPRGQQNRRLTPAYSTLRNNFDSKFYSDGNESFSSDYVRYSRPEQTDGDDVILTLTKPTSVDES | failed
MNKSTCLMAAETPSKRWRLHCLAFSQRFVRAGPACSSREACSSPRAGWNPAGFRLPGRWSPFVALHLVCQIREALKLRSGHRTPSGAGSSMQPPPSLCGRALVALVLACGLSRIWGEERGFPPDRATPLLQTAEIMTPPTKTLWPKGSNASLARSLAPAEVPKGDRTAGSPPRTISPPPCQGPIEIKETFKYINTVVSCLVFVLGIIGNSTLLRIIYKNKCMRNGPNILIASLALGDLLHIVIDIPINVYKLLAEDWPFGAEMCKLVPFIQKASVGITVLSLCALSIDRYRAVASWSRIKGIGVPKWTAVEIVLIWVVSVVLAVPEAIGFDIITMDYKGSYLRICLLHPVQKTAFMQFYKTAKDWWLFSFYFCLPLAITAFFYTLMTCEMLRKKSGMQIALNDHLKQRREVAKTVFCLVLVFALCWLPLHLSRILKLTLYNQNDPNRCELLSFLLVLDYIGINMASLNSCINPIALYLVSKRFKNCFKSCLCCWCQSFEEKQSLEEKQSCLKFKANDHGYDNFRSSNKYSSS | failed
MNKVQSIDPLIADKFNNELRSYNLEYKLEQESLNKEIDEALKNYASKNGGLGGNRPDVKLLLNTQDPNRRVPILIEYKGLKDKLIKLDKNKLVENFKNHEPHYKNIREYALNGALHYANAILHHTSYTECIAIGITGYKDNKGGICSQIAVYYVNKSNLGMGIDVSKGEQGYSDLSFLSRKHFNDFIKRVDTLSLSDEDLERIREKKNQEIEDCLMRLNNNIYNKEKNFLSEHNRVYLVIASIIANLGIPNLVTPLNKEDLKSSDEVHQRDGDIMLRKIQSFLENKDLSPEKRQSIISSLETLLRNENNNKATNGESCLKRCFSEIVDSLGIYYKIGLSTDFTGKLFNEMYRWLGFTKDQLNDVVLTPPYVATLLARLSKVNKDSFVWDFATGSAGLLVASMNLMIEDAKKRITSPEELEQKIAHIKAKQLLGIEILSDIHTLAVLNMILMGDGSSQILNQDGLSGFDGKVNNEAFKANAFVLNPPYSASGNGMVFVEQALEKMQSGYASVIIQSSAGSGKAKEYNVRILEKHTLLASIKMPLDLFIGKSSVQTHIYVFRVNEKHDAKQRVKFINFSNDGYARANRKKAKASHNLKDTHNAKERYNEVVDLVHIGQSCLKFLSEDDYYENTIDPKNGSDWNQNKPTDTKPELEDFKRTIADYLSYEVSLILKNQMPPKR | failed
MNKWLDLILKIHVHPFLWIIAALGLLTGHMKALLCLLLIVLIHELGHAALAVFFSWRIKRVFLLPFGGTVEVEEHGNRPLKEEFAVIIAGPLQHIWLQFAAWMLAEVSVIHQHTFELFTFYNLSILFVNLLPIWPLDGGKLLFLLFSKQLPFQKAHRLNLKTSLCFCLLLGCWVLFVIPLQISAWVLFVFLAVSLFEEYRQRHYIHVRFLLERYYGKNRELEKLLPLTVKAEDKVYHVMAEFKRGCKHPIIIEKSGQKLSQLDENEVLHAYFADKRTNSSMEELLLPY | failed
MNLEKHASPDSVIVIDDLLPQHMDYASRQRNTTIWTGDVYRLVPILRHYRPDLDIRVYDVDMKGFGLVTRLDPSSDVLAGNYGAIEADILAGKWSFPTAAAIRDHMQPRATDLLANDLGIIAARRTAKASKQSDRRAAPALPQRRPRLSVIICAYDMAREAPRTILSATAPYQKGLKEDEYEVIVVDNGSSTPLTYDNLPPNAQIVRAPDPRQSPVFALNWAAREIAKGEILLFAIDGARIFSERLIDETVKAHDRMEDAFVFSLSWHIGPKVQMQSVPEGYGAEIEDGLIRAVRWPDESDGLFGISVLAGSSSNGFFGDITESNSFSISRTLFDRHGGFDERFTSPGGGLANLEIFRRYVTRPDARNVCLLSEGTFHQVHDSVATSGKNRWEAFASEYEAIFGGPYLRPSYHCFYQGKPRAGMVPFILQSLQG | failed
MNLHQTVEHEAAAAFAAAGIAGSPVVLQPTKNAEHGDFQINGVMGAAKKAKQNPRELAQKVADALAGNAVIESAEVAGPGFINLRLRHEFLAQNIHAALNDARF | not failed
MNLKAMDAILEDCCDIVCSDYLPSAMIKSMCIVAERINNLNKAVSLFTSNPAKAVGIYDERGSIKENKKADLVLVDIDSEYPKVVNTIVNGKTVYKRELEHHHHHH | failed
MNLLLIVVFGAILEIAVWIGIAQFISGWYVFFWFIIAFFIGLSMLRSSTSSIMPQLQQMQMSGQMGNDPAVTKKLAVAMAGFLLMLPGVVSDILALLILIPGVQTLFRNALMKTLAKRQQAMMNKMMGGMMGGDVGGNAGQNPFEDLMRQMQNMQNQQGASPYNDSNVIDGEAREVKPDQKQIEHKDK | failed
MNLLYMVLIGQIILFLIGAMYAIGQTKKTRNNMPLPLAVRLILSFSLTASAIWIWLQDPSVDYSTWVALGMTLSTVGDLFMAGLIPIGHRLIGGMITFALAHCFYVKAFLQTGISWNGFWIGLLVYGLFLIIGWFFFIRNEKQDKLFTIGALIYGLWVGGMACFAFALYYENTGIWWIPAFGGLLFVISDFIIGVTDIGGRKLKYEPLWIWFTYVAAQMCIVYVGI | failed
MNLPKVKMLQVSKCLIGLAVMMLQSCDVADNRRDMLCGNWESVEGKPDVLIYKEGEAYKVTVFRRSGLRRKLKPETYLLQEENGNLFMNTGFRIDVSYNEATDVLTFSPNGDYVRVKPQPGHPTEE | failed
MNLRGILPFAHDTLRKVVRSGDYVVDATCGNGHDTLLLAELVGINGHVLGFDIQQLAIDATNTRLENAGVSSQVELVCASHARIPEYTSKPVRAAIFNLGYLPGGDKEITTTADSTLESIGHLMELLEVGGVIILVIYHGHPAGKQEKDAVMTFCEAIPQQDFHVLSYNFINQKNDAPFVIIIEKRKPRQSLEHHHHHH | not failed
MNLSFKIFDISNTQRSKAKKVQGKKYEIFLNENEHSLITPKVSFKEILRYYYLYPKNAIPSFKLPFFKPDLSGFSTPHITWLGHSSLFISFKEYKILIDPIFNTHASPISFINKAFKNAPVYNINDFNEIFAVIITHSHFDHLDAKSVKALKDKAKFFITPLKVGNYLKSYGVSEKKIIELDWWSGIEFGDLKIMATPAQHSSSRGDGKNKTLWASFVMEFLSVDKRVFFSADGGYFTHFKKIGEYFGSFDLACLESGQFNIAWPYSHSFPEQILKEAKDLNAKAVMPIHWGRFLAGTHAWNEVVKFLYENLDLPLITPKMGEAYEVGAKFKQDFWWKEELEHHHHHH | failed
MNLTELMERIPHLREILNIVREAFKDYDDPAHDISHTFRVMENASEIASREKCDLQKAIIAALLHDIKRPHEALTGVDHAESGAEYASGLLPTMGFDISFVAEVSKAIRSHRYSGGLTPTSLTGKILQDADRLDAIGAVAIARVFSYSGKTGTPLHSLQFSPRSSYSGNSRSSINHFHEKILKIRPETFWTETARKMAEDRYSFVVEFVQRFLAEWGQI | not failed
MNMIDQLNITDFQVFTDENSDKSVSKIYKFSSKMILSDFHAQPHGFLNGGASLALAEITAGMASNAIGSSQYFALGQSISANHLNSKKCEGFVNACGLLLKNGKRNHVWEIKITDENETLISQITVVNALVPQKNSDKLEHHHHHH | failed
MNMLALTILLPLIGFVLLAFSRGRWSENLSATVGMGSVGLAALVTAYVGVDFFANGKQAVSVPLWTWMSVGDFNIGFNLVLDGLSLTMLSVVTGVGFLIHMFASWYMRGEEGYSRFFAYTNLFIASMVVLVLADNLLLMYLGWEGVGLCSYLLIGFYYTDPKNGAAAMKAFVVTRVGDVFLAFALFILYNELGTLNFREMVELAPQHFANGSTTLQWATLMLLGGAVGKSAQLPLQTWLADAMAGPTPVSALIHAATMVTAGVYLIARTHGLFLMTPEVLHLVGIVGAVTLVLAGFAALVQTDIKRVLAYSTMSQIGYMFLALGVQAWDAAIFHLMTHAFFKALLFLSSGSVILACHHEQNIFKMGGLRKSIPLVYVCFLVGGAALSALPLITAGFFSKDEILAGAMANGHINLMVAGLVGAFMTSLYTFRMIFIVFHGKEQIHAHAGKGITHHLPLIVLLVLSTFVGALIVPPLEGVLPQTTELAHGSVMTLEIASGIIAIAGILIAAWLWLGKRTLVTSIANSAPGRFFGTWWFHAWGFDWLYDKVFVKPFLGIAWLLKRDPLNSLMNIPAILSRFAGKGLLVSENGYLRWYVASMSIGAVVVLALLMVLR | failed
MNMSTDRIERRIVLHAPRSRVWRALTNADEFGAWFRVDLAGQAFEAGRRVEGRITYPGYEHLVLQMRIERIEPEHHFSYRWHPAAVDPAVDYSQEAPTLVVFELADAEGGPLLTVVESGFDALPVERRADAFRMNSGGWDEQMTNIAAHVDAR | failed
